# Assay results: patent US10100341B2, “Tailored oils produced from recombinant oleaginous microorganisms” (Corbion Biotech, Inc., priority 2011, dated 2018)
# B1: Aat01-Amino acid transporter 01 promoter/5′UTR: putative nitrogen-regulated promoter/5′UTR, SEQ ID NO: 62 (nucleic acid, listed as Prototheca moriformis)
# DNA: CGAAGGGGTCTGCATCGATTCGCGCGGTCTGGAGGCCAGCGTGACTGCTCGCGAAAATGCTCTGCCGTGTCGGGCTCTGGCTGGGGCGGCCAGAGATCTCACCGTGCCACACGCAACTGCCGCACTCTGTGCCCGCCACCTGGCGCGCACATGCGACCTCTTCCCCGTCATACCCTCTCCTCATGTGATCTTTCCACACGAGTGACGCAGGTGCGCGGAGTGGAGGGAATCAGGACGTTTTCAAGGTACCTGCTCGAGCCGTACCAACAGCTGCCGCCCGGCAAGGAAGAGATCGAGGCAGAGATTGCCCGGCTGGAGGCCCGGATAACGGAGCTCAAGAGCAAGCTGTCCGAGTGAGACCGCCCAGGTGCACGTGTCGACTCGCTATGACATGTACTCGACACAACATGAGGAATTCATCGAATTTGTAGGAAGCGGGCATTGGTACGGGAGTGGGAAAGCGAAAAAACCTCCCTCCGGCAGTGCCATCTGCCGGAGTCGAACGTTGATAGGGTTCTCGTGACAGGGTGTGACCTCTCAGCCTTGCATCAATTAAACGCTATAGACATTATCAGTAACCGTGAATCCCGCATTGGATGCCACCCGCGCGACCATTGGGGACCTGCATTACAGATCTAGGTGAGATGACAGCGAGGCAACTTCGGCCCGCGGCCCAGCTTGCGGCGCACCAATATTGGTCACGGGAAGCCACACACCGACCATAAATGAATACTTGTAAGCTATGTCAACCGATCAATGGCGTCGAAAGTGTGCCACGAGGATCCATCTGGCGGGGCGGCGTGGCGCACAAGCGCAGTCGCAATTTCTCGGACCCATCTGACCTAGGCCCAGCGCCGCGGGAGAAATCCCCGGCGGGTCCTCCACGCAGTAACCCTAATGAGTATCGAGCGCCGACCATTTACACCATCGCCCCCGAAATCCTTCCGACATTATTATTATCTTTTAGATCTTGGAACAGACTCTGCCAACC
# B2: Aat04-Amino acid transporter 04 promoter/5′UTR: putative nitrogen-regulated promoter/5′UTR, SEQ ID NO: 65 (nucleic acid, listed as Prototheca moriformis)
# DNA: CGCGTGGAGCGGTGCGTGCGGATGCCGCGCGCCTGCCAAGGCCTTTTGTATGCCTGGCCTGGGAAGTTTCCTGACTGAAGCATCTTCAAGATGCTCTCTCACGACCAGCGACACCAACACCGTCACTTTTTGCCCCTCCTGCCGCAGGTGCCACTTTCTACTTTGACGTCTTCTCCAGGCGGTACATTGCGGGACTGAGCGCCAATTCGGCCAAGAACAGCGCTGTCGACTTGAGGAGGCAGGGGTCCGTCGACTCTGCCGAGTGACACGCCTTCGACCCGACTGTACTACGGCCTGCTGAAGAGTGGGTCTCGCCGGCCGGCGTGACCGGCCCTGTGCCCACAATCGACCATCTATTCGCTCCTTGTCATCTGGCGCCGTCAATTGCCCGCGACTTGACGGCAACTGGCTCGATCGAGTCGTATTGAAAAAGCACGTTTTGTCCTACAGGGCCGCGGTCCGTTACCAACGTGGTTCTCGTTAGGTTTTCGTCGGGCGGTGGTGCGCGAACTGTCCGATGCCATCCCGGCAAACCCCAGCAAGGTCGCCAGTCTGGTTCTGACGCAATAGAGTGCGTTTTGGGCCAGTCTAAAAATTCGTCTGGCATGACGTGGCTCCACATCGTACCCGGAGCCTGCCTTGGTAATGTGAGGCACCGGTGCCAACTCCATTATGGCAGGCATCGAGCGCGCAGGTGAGTACATGACCTTCCGTGAATTGGGAAGGCGAGCTTGTGTAACGCCTGCGATCGTGCCAGTGAGGCATCGTAAACTCAAAATATTTTGTAGAAAGTGTCTGATGCCTGGTGAGGCTGCGTAGGGCAAGGGCAAGCCCTTGGCAGATGGGTAATGGGTCCGGACCTCACAACAGCAACCCCGCGTCCCCCTTAGGGCCCCTGAGGCTCGATGGCAGGGCCAGCGAGCCCGCGGCCAAAGGGCGCCATCCCACGGTCGCCCAACGACTCCACGGGTCCTATACCTCATCTTGAATGGCACTAAAAACTATAGAATATCGGGCACTGGTGGGCGTCTGGGGTACAGCTGGCCGAGCGCAGTGGCAAACCCTAGGTCCCGCCTCAAGGGCGATTCCCGGGTCAATGACACGCAAGCAAGATCACATGGCGCGGTCCGCCTCGCGGCTCCACACCCAGGCCCTAGTTTCGCAACCCATAAATATCGCCCCGATACCATCATAAGCCAGCAAATAATTTTTTATCAGAGTTCCAAACCTCCTCAGCTGTGGGAAACCAGCCCACTCTGAACG
# B3: Amt03-Ammonium transporter 03 promoter/5′UTR: putative nitrogen-regulated promoter/5′UTR, SEQ ID NO: 60 (nucleic acid, listed as Prototheca moriformis)
# DNA: GGCCGACAGGACGCGCGTCAAAGGTGCTGGGCGTGTATGCCCTGGTCGGCAGGTCGTTGCTGTTGCTGCGCTCGTGGTTCCGCAACCCTGATTTTGGCGTCTTATTCTGGCGTGGCAAGCGCTGACGCCCGCGAGCCGGGCCGGCGGCGATGCGGTGTCTCACGGCTGCCGAGCTCCAAGGGAGGCAAGAGCGCCCGGATCAGCTGAAGGGCTTTACACGCAAGGTACAGCCGCTCCTGCAAGGCTGCGTGGTGGACTTGAACCTGTAGGTCCTCTGCTGAAGTTCCTCCACTACCTCACCAGGCCCAGCAGACCAAAGCACAGGCTTTTCAGGTCCGTGTCATCCACTCTAAAACACTCGACTACGACCTACTGATGGCCCTAGATTCTTCATCAACAATGCCTGAGACACTTGCTCAGAATTGAAACTCCCTGAAGGGACCACCAGAGGCCCTGAGTTGTTCCTTCCCCCCGTGGCGAGCTGCCAGCCAGGCTGTACCTGTGATCGAGGCTGGCGGGAAAATAGGCTTCGTGTGCTCAGGTCATGGGAGGTGCAGGACAGCTCATGAAACGCCAACAATCGCACAATTCATGTCAAGCTAATCAGCTATTTCCTCTTCACGAGCTGTAATTGTCCCAAAATTCTGGTCTACCGGGGGTGATCCTTCGTGTACGGGCCCTTCCCTCAACCCTAGGTATGCGCGCATGCGGTCGCCGCGCAACTCGCGCGAGGGCCGAGGGTTTGGGACGGGCCGTCCCGAAATGCAGTTGCACCCGGATGCGCGGCGCCTTTCTTGCGATAATTTATGCAATGGACTGCTCTGCAAATTTCTGGGTCTGTCGCCAACCCTAGGATCAGCGGCGTAGGATTTCGTAATCATTCGTCCTGATGGGGAGCTACCGACTACCCTAATATCAGCCCGGCTGCCTGACGCCAGCGTCCACTTTTGCGTACACATTCCATTCGTGCCCAAGACATTTCATTGTGGTGCGAAGCGTCCCCAGTTACGCTCACCTGTTTCCCGACCTCCTTACTGTTCTGTCGACAGAGCGGGCCCACAGGCCGGTCGCAGCC
# B4: SugT Sugar transporter promoter/5′UTR: putative nitrogen-regulated promoter/5′UTR, SEQ ID NO: 59 (nucleic acid, listed as Prototheca moriformis)
# DNA: CCAGGCAGGCGGTAGGGTTGCCGATTGCTTGAGCGAATTGGAAGATATAATTTTTTGTGGTGTCCCTGGACGCTGTTTGTGGCGCTCCTTTTTGGAGAAGATTGCGTGGGGGAGCTTTCCATGTACCACGCTTCCTTCTGAAAGGATTCTGGCCGAGTCCTGATGAGCCCAAAGAAAACACCTGCCTTTCAGTGCTGGCACTCTGAAAACGTCAACAGATGATTATACATGTCACAAAAGGCAGCCGATTAGGAACGGGAGCTCTGGCCGTTCGTTTGGCTGCCTGGGCTGATTGAAGTGATCCACCCTGTTCGAATGAAGGCGGTCGAGTCGAATTATCGACCGGAGCTGTCGGGAAGGCGTCCGGGGCAGAGTGAGGTGCTGCGGCCTGGTTGTCGTTCAAAAAGACCCCGGTAGCCCAACAATCACGAACGAAAGGAATATAATTGCTTGCATACTATACATTCAGTTTCTATGTGGCGGGTAGACAAGTCTCATGGGCTTCTAAAGGCTGTCCCTTGAAGGCTACTTATAAAAACTTGCTGCGCCATGGCACGGATCGCGCTTGCGCAGGCTGCAACCCTGCGCGCAAGGTCAAATACACAGCAAAAGATACTAACAGAATTTCTAAAAACATTTAAATATTTGTTTCGACCAGCCAATTGTGGTCGTAGGCACGCAAAAGACTTTGTTTTGCGCCCACCGAGCATCCACGCTGGCAGTCAAGCCAGTCCGATGTGCATTGCGTGGCAGCATCGAGGAGCATCAAAAACCTCGTGCACGCTTTTCTGTCAATCATCATCAACCACTCCACCATGTATACCCGATGCATCGCGGTGCGCAGCGCGCCACGCGTCCCAGACCCGCCCAAAAACCCAGCAGCGGCGAAAGCAAATCTTCACTTGCCCGAAACCCCGAGCAGCGGCATTCACACGTGGGCGAAAACCCCACTTGCCCTAACAGGCGTATGTCTGCTGTCACGATGCCTGACAACGGTATTATAGATATACACTGATTAATGTTTGAGTGTGTGCGAGTCGCGAATCAGGAATGAATTGCTAGTAGGCACTCCGACCGGGCGGGGGCCGAGGGACCA
# Tested on: Prototheca moriformis (UTEX 1435)
# Test: cDNA abundance by real-time RT-PCR under nitrogen depletion
# Format: cell-based
# Settings: after 24 hours of culture in low nitrogen medium
# Experimental: A cDNA library was generated from Prototheca moriformis (UTEX 1435) using standard techniques. The Prototheca moriformis cells were grown for 48 hours under nitrogen replete conditions. […] After about 24 hours in culture, the nitrogen supply in the media was completely depleted. The collected samples were immediately frozen using dry ice and isopropanol. Total RNA was subsequently isolated from the frozen cell pellet samples and a portion from each sample was held in reserve for RT-PCR studies. The rest of the total RNA harvested from the samples was subjected to polyA selection. Equimolar amounts of polyA selected RNA from each condition was then pooled and used to generate a cDNA library in vector pcDNA 3.0 (Invitrogen). Roughly 1200 clones were randomly picked from the resulting pooled cDNA library and subjected to sequencing on both strands. Approximately 68 different cDNAs were selected from among these 1200 sequences and used to design cDNA-specific primers for use in real-time RT-PCR studies. RNA isolated from the cell pellet samples that were held in reserve was used as substrate in the real time RT-PCR studies using the cDNA-specific primer sets generated above. This reserved RNA was converted into cDNA and used as substrate for RT-PCR for each of the 68 gene specific primer sets. […] As discussed in the specification, nitrogen depletion/limitation is a known inducer of lipogenesis in oleaginous microorganisms. Fold increase refers to the fold increase in cDNA abundance after 24 hours of culture in low nitrogen medium.
row,Molecule,Fold increased (cDNA abundance)
1,B1,6.21
2,B2,10.95
3,B3,10.1
4,B4,17.35

# Tested on: Prototheca moriformis (UTEX 1435)
# Test: Steady state thioesterase mRNA level by real-time RT-PCR (promoter testing, normalized to cd189)
# Settings: low nitrogen medium
row,Molecule,steady state C. camphora thioesterase mRNA level relative to control (C. reinhardtii beta tubulin promoter)
1,B1,up to four
2,B2,up to five
